B1: Tuftelin-interacting protein 11 (Homo sapiens), Q9UBB9 (parent)
chain: MSLSHLYRDGEGRIDDDDDERENFEITDWDLQNEFNPNRQRHWQTKEEATYGVWAERDSDDERPSFGGKRARDYSAPVNFISAGLKKGAAEEAELEDSDDEEKPVKQDDFPKDFGPRKLKTGGNFKPSQKGFAGGTKSFMDFGSWERHTKGIGQKLLQKMGYVPGRGLGKNAQGIINPIEAKQRKGKGAVGAYGSERTTQSMQDFPVVDSEEEAEEEFQKELSQWRKDPSGSKKKPKYSYKTVEELKAKGRISKKLTAPQKELSQVKVIDMTGREQKVYYSYSQISHKHNVPDDGLPLQSQQLPQSGKEAKAPGFALPELEHNLQLLIDLTEQEIIQNDRQLQYERDMVVNLFHELEKMTEVLDHEERVISNLSKVLEMVEECERRMQPDCSNPLTLDECARIFETLQDKYYEEYRMSDRVDLAVAIVYPLMKEYFKEWDPLKDCTYGTEIISKWKSLLENDQLLSHGGQDLSADAFHRLIWEVWMPFVRNIVTQWQPRNCDPMVDFLDSWVHIIPVWILDNILDQLIFPKLQKEVENWNPLTDTVPIHSWIHPWLPLMQARLEPLYSPIRSKLSSALQKWHPSDSSAKLILQPWKDVFTPGSWEAFMVKNIVPKLGMCLGELVINPHQQHMDAFYWVIDWEGMISVSSLVGLLEKHFFPKWLQVLCSWLSNSPNYEEITKWYLGWKSMFSDQVLAHPSVKDKFNEALDIMNRAVSSNVGAYMQPGARENIAYLTHTERRKDFQYEAMQERREAENMAQRGIGVAASSVPMNFKDLIETKAEEHNIVFMPVIGKRHEGKQLYTFGRIVIYIDRGVVFVQGEKTWVPTSLQSLIDMAK

Variants of: B1
Conditions: with zmat2_human ZMAT2, Q96NC0
zmat2_human ZMAT2, Q96NC0, sequence (Q96NC0 whole entry): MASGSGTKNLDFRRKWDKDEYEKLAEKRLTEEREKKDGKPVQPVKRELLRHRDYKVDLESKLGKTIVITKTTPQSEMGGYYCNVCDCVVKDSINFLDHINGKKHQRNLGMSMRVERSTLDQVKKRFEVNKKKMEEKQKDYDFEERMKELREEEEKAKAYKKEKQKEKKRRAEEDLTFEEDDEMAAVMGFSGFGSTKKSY

Row | effect of a mutation on the interaction | Variant
1 | with no effect | R8Q

Variants of: B1
Conditions: with cox5b_human COX5B

Row | effect of a mutation on the interaction | Variant
2 | with no effect | R8Q

Variants of: B1
Conditions: with txlna_human TXLNA

Row | effect of a mutation on the interaction | Variant
3 | with no effect | R8Q

Variants of: B1
Conditions: with hook1_human HOOK1, Q9UJC3

Row | effect of a mutation on the interaction | Variant
4 | with no effect | R8Q

Variants of: B1
Conditions: with tnnt1_human TNNT1, P13805
tnnt1_human TNNT1, P13805, sequence (P13805 whole entry): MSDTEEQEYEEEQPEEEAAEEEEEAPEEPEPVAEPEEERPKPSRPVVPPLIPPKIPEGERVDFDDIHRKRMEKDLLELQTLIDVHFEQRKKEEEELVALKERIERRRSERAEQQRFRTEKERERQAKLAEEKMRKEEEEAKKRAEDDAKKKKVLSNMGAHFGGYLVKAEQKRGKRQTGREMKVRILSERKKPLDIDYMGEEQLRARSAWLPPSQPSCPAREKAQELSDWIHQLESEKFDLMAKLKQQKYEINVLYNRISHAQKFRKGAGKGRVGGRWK

Row | effect of a mutation on the interaction | Variant
5 | with no effect | R8Q

Variants of: B1
Conditions: with coq8a_human COQ8A

Row | effect of a mutation on the interaction | Variant
6 | with no effect | R8Q

Variants of: B1
Conditions: with smce1_human SMARCE1, Q969G3
smce1_human SMARCE1, Q969G3, sequence (Q969G3 whole entry): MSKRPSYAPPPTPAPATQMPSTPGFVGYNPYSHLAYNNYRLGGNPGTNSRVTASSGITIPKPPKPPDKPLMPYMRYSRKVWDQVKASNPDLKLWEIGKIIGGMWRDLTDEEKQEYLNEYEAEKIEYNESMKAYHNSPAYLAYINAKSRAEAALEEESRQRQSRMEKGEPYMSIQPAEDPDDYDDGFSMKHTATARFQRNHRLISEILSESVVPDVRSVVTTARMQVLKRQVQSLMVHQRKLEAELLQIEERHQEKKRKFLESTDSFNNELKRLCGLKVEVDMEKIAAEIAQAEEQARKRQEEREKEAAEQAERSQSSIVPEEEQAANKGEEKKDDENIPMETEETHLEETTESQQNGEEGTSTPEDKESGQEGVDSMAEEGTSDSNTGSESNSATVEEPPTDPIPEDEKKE

Row | effect of a mutation on the interaction | Variant
7 | with no effect | R8Q

Variants of: B1
Conditions: with bmf_human BMF

Row | effect of a mutation on the interaction | Variant
8 | with no effect | R8Q

Variants of: B1
Conditions: with fa13c_human FAM13C

Row | effect of a mutation on the interaction | Variant
9 | with no effect | R8Q

Variants of: B1
Conditions: with prp31_human PRPF31, Q8WWY3

Row | effect of a mutation on the interaction | Variant
10 | with no effect | R8Q

Variants of: B1
Conditions: with snw1_human SNW1, Q13573
snw1_human SNW1, Q13573, sequence (Q13573 whole entry): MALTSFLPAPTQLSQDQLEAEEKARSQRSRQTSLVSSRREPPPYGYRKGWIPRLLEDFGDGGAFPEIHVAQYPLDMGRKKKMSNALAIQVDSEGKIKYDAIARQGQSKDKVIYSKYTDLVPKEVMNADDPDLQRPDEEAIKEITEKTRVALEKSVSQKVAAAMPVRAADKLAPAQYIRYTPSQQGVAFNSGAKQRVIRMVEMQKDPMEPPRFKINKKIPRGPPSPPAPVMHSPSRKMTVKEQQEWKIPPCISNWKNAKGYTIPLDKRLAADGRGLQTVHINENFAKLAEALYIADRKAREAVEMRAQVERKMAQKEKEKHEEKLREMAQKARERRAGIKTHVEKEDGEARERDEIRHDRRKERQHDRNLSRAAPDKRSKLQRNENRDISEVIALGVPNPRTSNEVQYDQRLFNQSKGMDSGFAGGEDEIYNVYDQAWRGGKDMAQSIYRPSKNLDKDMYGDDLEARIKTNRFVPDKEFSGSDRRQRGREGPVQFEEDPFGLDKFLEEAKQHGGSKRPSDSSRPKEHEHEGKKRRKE

Row | effect of a mutation on the interaction | Variant
11 | with no effect | R8Q

Variants of: B1
Conditions: with sfr1_human SFR1, Q86XK3
sfr1_human SFR1, Q86XK3, sequence (Q86XK3 whole entry): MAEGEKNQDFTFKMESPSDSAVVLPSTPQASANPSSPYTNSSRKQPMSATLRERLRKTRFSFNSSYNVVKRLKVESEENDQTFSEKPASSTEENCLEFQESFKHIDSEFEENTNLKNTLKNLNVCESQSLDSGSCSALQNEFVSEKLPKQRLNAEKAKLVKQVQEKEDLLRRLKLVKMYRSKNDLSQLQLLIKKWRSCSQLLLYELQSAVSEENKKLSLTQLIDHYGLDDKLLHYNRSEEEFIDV

Row | effect of a mutation on the interaction | Variant
12 | with no effect | R8Q

Variants of: B1
Conditions: with zfy26_human ZFYVE26, Q68DK2
zfy26_human ZFYVE26, Q68DK2, sequence (Q68DK2 whole entry): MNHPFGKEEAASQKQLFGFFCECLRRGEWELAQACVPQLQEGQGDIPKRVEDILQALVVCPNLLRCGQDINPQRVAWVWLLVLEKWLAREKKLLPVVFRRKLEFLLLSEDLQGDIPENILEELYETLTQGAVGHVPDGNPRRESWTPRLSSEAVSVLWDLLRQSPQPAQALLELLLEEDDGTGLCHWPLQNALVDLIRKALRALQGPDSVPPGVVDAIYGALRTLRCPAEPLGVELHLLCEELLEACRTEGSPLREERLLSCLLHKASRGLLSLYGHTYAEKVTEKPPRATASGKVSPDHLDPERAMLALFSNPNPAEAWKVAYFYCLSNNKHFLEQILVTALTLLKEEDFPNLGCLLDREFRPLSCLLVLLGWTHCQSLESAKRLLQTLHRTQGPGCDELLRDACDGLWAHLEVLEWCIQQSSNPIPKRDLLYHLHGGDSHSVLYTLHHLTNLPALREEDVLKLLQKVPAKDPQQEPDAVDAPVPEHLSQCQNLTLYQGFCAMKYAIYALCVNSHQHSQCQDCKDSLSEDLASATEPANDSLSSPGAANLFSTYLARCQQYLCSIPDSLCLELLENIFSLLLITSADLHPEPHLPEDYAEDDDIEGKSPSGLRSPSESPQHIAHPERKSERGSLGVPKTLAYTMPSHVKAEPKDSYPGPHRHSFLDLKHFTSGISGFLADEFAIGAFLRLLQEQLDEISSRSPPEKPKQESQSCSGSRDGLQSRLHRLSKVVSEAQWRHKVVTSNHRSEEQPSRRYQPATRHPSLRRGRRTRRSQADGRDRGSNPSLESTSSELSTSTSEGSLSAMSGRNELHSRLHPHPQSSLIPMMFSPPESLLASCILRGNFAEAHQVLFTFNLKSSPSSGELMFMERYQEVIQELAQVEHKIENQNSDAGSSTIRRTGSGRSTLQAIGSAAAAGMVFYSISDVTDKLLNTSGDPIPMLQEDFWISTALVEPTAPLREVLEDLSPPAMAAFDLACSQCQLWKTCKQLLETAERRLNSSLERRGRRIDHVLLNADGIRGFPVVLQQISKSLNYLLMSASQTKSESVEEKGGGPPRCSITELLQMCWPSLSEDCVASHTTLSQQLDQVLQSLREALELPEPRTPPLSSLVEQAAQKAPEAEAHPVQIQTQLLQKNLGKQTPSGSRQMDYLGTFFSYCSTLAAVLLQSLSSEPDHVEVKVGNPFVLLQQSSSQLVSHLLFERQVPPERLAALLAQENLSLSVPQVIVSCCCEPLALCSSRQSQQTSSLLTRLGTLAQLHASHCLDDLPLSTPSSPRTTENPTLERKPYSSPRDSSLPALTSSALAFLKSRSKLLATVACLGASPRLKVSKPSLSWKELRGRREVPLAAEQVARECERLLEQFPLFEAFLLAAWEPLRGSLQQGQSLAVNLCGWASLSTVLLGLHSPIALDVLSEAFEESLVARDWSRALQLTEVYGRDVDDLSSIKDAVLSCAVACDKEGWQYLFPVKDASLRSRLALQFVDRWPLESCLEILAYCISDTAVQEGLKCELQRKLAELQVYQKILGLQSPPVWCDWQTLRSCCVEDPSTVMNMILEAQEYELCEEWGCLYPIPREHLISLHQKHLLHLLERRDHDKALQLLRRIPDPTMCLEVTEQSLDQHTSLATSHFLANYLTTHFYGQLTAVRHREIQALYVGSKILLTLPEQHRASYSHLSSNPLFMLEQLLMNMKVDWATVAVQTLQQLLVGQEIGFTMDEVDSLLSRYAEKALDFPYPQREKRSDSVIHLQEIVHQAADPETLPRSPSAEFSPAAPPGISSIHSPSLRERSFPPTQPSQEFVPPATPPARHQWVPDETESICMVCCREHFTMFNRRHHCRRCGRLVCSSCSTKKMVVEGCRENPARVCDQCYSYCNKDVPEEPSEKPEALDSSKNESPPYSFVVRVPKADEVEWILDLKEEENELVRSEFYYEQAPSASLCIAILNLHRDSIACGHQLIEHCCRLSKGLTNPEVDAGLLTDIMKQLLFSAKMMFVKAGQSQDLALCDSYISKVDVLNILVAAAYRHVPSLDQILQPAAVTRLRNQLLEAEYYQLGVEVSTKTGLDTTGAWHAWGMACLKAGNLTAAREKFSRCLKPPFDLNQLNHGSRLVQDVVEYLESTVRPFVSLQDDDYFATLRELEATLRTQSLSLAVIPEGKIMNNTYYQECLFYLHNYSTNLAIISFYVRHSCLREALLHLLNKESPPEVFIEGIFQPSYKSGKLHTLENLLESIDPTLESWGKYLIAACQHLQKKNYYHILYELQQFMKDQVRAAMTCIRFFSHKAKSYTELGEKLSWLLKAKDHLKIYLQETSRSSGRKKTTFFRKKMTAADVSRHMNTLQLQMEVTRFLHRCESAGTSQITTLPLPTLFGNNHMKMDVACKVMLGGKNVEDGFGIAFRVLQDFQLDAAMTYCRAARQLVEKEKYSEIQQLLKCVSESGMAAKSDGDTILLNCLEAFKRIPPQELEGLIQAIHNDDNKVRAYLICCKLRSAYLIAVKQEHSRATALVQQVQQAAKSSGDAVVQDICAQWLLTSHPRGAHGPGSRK

Row | effect of a mutation on the interaction | Variant
13 | with no effect | R8Q

Variants of: B1
Conditions: with abi2_human ABI2, Q9NYB9
abi2_human ABI2, Q9NYB9, sequence (Q9NYB9 whole entry): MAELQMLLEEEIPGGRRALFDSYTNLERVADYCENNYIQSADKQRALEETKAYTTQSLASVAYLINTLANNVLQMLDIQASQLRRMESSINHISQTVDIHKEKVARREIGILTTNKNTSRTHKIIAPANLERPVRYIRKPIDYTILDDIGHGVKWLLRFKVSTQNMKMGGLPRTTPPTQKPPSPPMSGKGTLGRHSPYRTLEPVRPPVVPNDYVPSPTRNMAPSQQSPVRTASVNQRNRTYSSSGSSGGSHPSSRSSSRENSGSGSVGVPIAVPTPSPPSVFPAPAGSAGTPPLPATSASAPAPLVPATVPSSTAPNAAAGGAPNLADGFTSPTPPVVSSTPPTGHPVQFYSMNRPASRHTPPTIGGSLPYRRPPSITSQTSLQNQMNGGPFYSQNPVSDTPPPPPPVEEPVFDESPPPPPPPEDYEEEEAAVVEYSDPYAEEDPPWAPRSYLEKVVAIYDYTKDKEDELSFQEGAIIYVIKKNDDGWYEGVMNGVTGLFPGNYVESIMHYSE

Row | effect of a mutation on the interaction | Variant
14 | with no effect | R8Q

Variants of: B1
Conditions: with cc121_human CCDC121, Q6ZUS5
cc121_human CCDC121, Q6ZUS5, sequence (Q6ZUS5 whole entry): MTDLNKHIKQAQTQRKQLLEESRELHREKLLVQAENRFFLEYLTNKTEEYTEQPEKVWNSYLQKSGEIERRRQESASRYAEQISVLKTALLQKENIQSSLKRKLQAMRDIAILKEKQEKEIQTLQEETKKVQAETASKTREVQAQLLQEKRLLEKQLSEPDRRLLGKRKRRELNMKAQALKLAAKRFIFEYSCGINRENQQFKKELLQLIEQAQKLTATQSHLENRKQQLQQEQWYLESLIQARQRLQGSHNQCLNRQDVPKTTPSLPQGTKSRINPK

Row | effect of a mutation on the interaction | Variant
15 | with no effect | R8Q

Variants of: B1
Conditions: with KRT6A

Row | effect of a mutation on the interaction | Variant
16 | with no effect | R8Q
